Results on five substances are retold here after PMC10798635.

Common to all, as to conditions: room temperature 30-45 min, BLI: 20 mM Tris-HCl pH 7.4, 80 mM NaCl, 20 mM KCl, 1 mM DTT
Data set [1] deals with Hantavirus nucleocapsid protein (NP), wild type (Sin Nombre virus). The data set is described as follows: filter binding.
Data set [2] shares this test system. The data set is described as follows: filter binding. This is another data set of the same source.
Data set [3] shares this test system. The experiment in a line: filter binding. This is another data set of the same source.
For data set [4] the test system is unchanged. The experiment in a line: filter binding. The source holds these as a separate data set.
Data set [5] shares this test system. The experiment in a line: BLI. A general note: BLI is a label-free optical method that tracks binding on a fibre tip over time.

In turn, Mutant 1 (VCP 5' UTR nt 1-542) came in with a Kd in data set [1] of 0.0422 µM.

Consider Mutant 2 (VCP 5' UTR nt 542-988), for which the dissociation constant Kd in data set [2] turned out to be 1.6 µM; in data set [1], 1.9 µM.

On to Mutant 3 (mutant 1 lacking nt 530-542), for which the equilibrium dissociation constant (Kd) in data set [1] and in data set [3] was 2.4 µM throughout.

In the case of “Mutant 4 (wild type UTR lacking nt 530-542)”, the dissociation constant Kd in data set [4] is 1.4 µM; in data set [1], 3.9 µM.

Consider VCP mRNA 5' UTR wild type, for which the equilibrium dissociation constant (Kd) in data set [5] was 0.025 µM; in data set [1], 0.047 µM.

As usually defined, the Kd is the constant that tells how readily two partners part at equilibrium.
